Test results from patent US20040072185A1 (published 2004).

Molecular target: the molecule itself
Assay: Western blotting of the microsomal fraction of transfected cells; self-association
Description: The truncated SERCA1 protein could be detected in the microsomal fraction of transiently transfected cells, by western blotting. […] Immunohistochemical analyses of the transfected cells were carried out with the anti-SERCA1-T antibody and made it possible to detect a reticular location in the cells transfected with S1T+4.

B1: S1T+4 truncated SERCA1 protein (other)
chain: MEAAHAKTTEECLAYFGVSETTGLTPDQVKRNLEKYGLNELPAEEGKTLWELVIEQFEDLLVRILLLAACISFVLAWFEEGEETITAFVEPFVILLILIANAIVGVWQERNAENAIEALKEYEPEMGKVYRADRKSVQRIKARDIVPGDIVEVAVGDKVPADIRILAIKSTTLRVDQSILTGESVSVIKHTEPVPDPRAVNQDKKNMLFSGTNIAAGKALGIVATTGVGTEIGKIRDQMAATEQDKTPLQQKLDEFGEQLSKVISLICVAVWLINIGHFNDPVHGGSWFRGAIYYFKIAVALAVAAIPEGLPAVITTCLALGTRRMAKKNAIVRSLPSVETLGCTSVICSDKTGTLTTNQMSVCKMFIIDKVDGDICLLNEFSITGSTYAPEGEVPKVSMRRSARPPRQHSPPWWRR
notes: Splice variant of SERCA1 lacking exon 11, expected size 46 kDa; Expressed in transfected cells or endogenous in cell lines; also called SERCA1-T
B1: binds.
